This is an account of results in paper PMC3861084 (Molecular Biology of the Cell, 2013).

The target of this experiment is T1, pY14–Cav-1–mRFP (Cav-1–monomeric red fluorescent protein phosphorylated at Tyr-14) (canine, UniProt P33724 1-178, phosphotyrosine at 14).
T1 sequence (looked up): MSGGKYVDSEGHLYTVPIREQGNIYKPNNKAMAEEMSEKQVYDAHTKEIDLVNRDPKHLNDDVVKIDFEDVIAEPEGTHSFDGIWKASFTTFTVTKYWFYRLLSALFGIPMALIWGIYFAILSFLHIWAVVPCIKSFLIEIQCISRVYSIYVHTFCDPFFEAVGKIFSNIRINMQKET
Put plainly: far-Western.

B1: GST fused to the Src SH2 domain (domain or fragment, chicken, UniProt P00523 148-251, looked up)
chain: WYFGKITRRESERLLLNPENPRGTFLVRESETTKGAYCLSVSDFDNAKGLNVKHYKIRKLDSGGFYITSRTQFSSLQQLVAYYSKHADGLCHRLTNVCPTSKPQ
In the case of B1, the binding result is reported as “binds”.
